This assay has as its system human HL60 cells. The assay is described as follows: SWATH-MS proteomics, differential protein representation, akirin2 KO vs WT HL60 cells. In kind it is cell-based. The note with it: akirin2 KO vs WT HL60 cells. Summed up: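 WT and akirin2 KO HL60 lysates (150 µg, n=3 biological replicates) were FASP trypsin-digested and desalted. A spectral library was built by IDA from 3 µg digests, then 5 µg per sample went to variable-window SWATH DIA over a 120-min 5–30% acetonitrile gradient. Identifications were accepted at 1% global FDR, with total-area-sum normalization.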

Setting [1] is: SWATH-MS, under-represented in KO.
The mark [2] stands for this setting: sheet "Under-represented in KO".

B1: sp¦O75607¦NPM3_HUMAN (protein, UniProt O75607 2-178, looked up)
Nucleoplasmin-3: AAGTAAALAFLSQESRTRAGGVGGLRVPAPVTMDSFFFGCELSGHTRSFTFKVEEEDDAEHVLALTMLCLTEGAKDECNVVEVVARNHDHQEIAVPVANLKLSCQPMLSLDDFQLQPPVTFRLKSGSGPVRITGRHQIVTMSNDVSEEESEEEEEDSDEEEVELCPILPAKKQGGRP
Regarding B1, under setting [1], the “Fold Change” value is on record as 0.6936 and the “Log (Fold Change)” value is listed as -0.1589.

B2: sp¦Q9Y5Y2¦NUBP2_HUMAN (protein, UniProt Q9Y5Y2 1-271, looked up)
Cytosolic Fe-S cluster …: MEAAAEPGNLAGVRHIILVLSGKGGVGKSTISTELALALRHAGKKVGILDVDLCGPSIPRMLGAQGRAVHQCDRGWAPVFLDREQSISLMSVGFLLEKPDEAVVWRGPKKNALIKQFVSDVAWGELDYLVVDTPPGTSDEHMATIEALRPYQPLGALVVTTPQAVSVGDVRRELTFCRKTGLRVMGIVENMSGFTCPHCTECTSVFSRGGGEELAQLAGVPFLGSVPLDPALMRTLEEGHDFIQEFPGSPAFAALTSIAQKILDATPACLP
Regarding B2, under setting [2], the “Fold Change” value amounted to 0.6881 and the “Log (Fold Change)” value is listed as -0.1623.

B3: sp¦P61009¦SPCS3_HUMAN (protein, UniProt P61009 1-180, looked up)
Signal peptidase complex …: MNTVLSRANSLFAFSLSVMAALTFGCFITTAFKDRSVPVRLHVSRIMLKNVEDFTGPRERSDLGFITFDITADLENIFDWNVKQLFLYLSAEYSTKNNALNQVVLWDKIVLRGDNPKLLLKDMKTKYFFFDDGNGLKGNRNVTLTLSWNVVPNAGILPLVTGSGHVSVPFPDTYEITKSY
Regarding B3, under setting [1], the “Fold Change” value was 0.6925 and the “Log (Fold Change)” value is given as -0.1596.

B4: sp¦Q9H0A0¦NAT10_HUMAN (protein, UniProt Q9H0A0 1-1025, looked up)
RNA cytidine acetyltransferase: MHRKKVDNRIRILIENGVAERQRSLFVVVGDRGKDQVVILHHMLSKATVKARPSVLWCYKKELGFSSHRKKRMRQLQKKIKNGTLNIKQDDPFELFIAATNIRYCYYNETHKILGNTFGMCVLQDFEALTPNLLARTVETVEGGGLVVILLRTMNSLKQLYTVTMDVHSRYRTEAHQDVVGRFNERFILSLASCKKCLVIDDQLNILPISSHVATMEALPPQTPDESLGPSDLELRELKESLQDTQPVGVLVDCCKTLDQAKAVLKFIEGISEKTLRSTVALTAARGRGKSAALGLAIAGAVAFGYSNIFVTSPSPDNLHTLFEFVFKGFDALQYQEHLDYEIIQSLNPEFNKAVIRVNVFREHRQTIQYIHPADAVKLGQAELVVIDEAAAIPLPLVKSLLGPYLVFMASTINGYEGTGRSLSLKLIQQLRQQSAQSQVSTTAENKTTTTARLASARTLYEVSLQESIRYAPGDAVEKWLNDLLCLDCLNITRIVSGCPLPEACELYYVNRDTLFCYHKASEVFLQRLMALYVASHYKNSPNDLQMLSDAPAHHLFCLLPPVPPTQNALPEVLAVIQVCLEGEISRQSILNSLSRGKKASGDLIPWTVSEQFQDPDFGGLSGGRVVRIAVHPDYQGMGYGSRALQLLQMYYEGRFPCLEEKVLETPQEIHTVSSEAVSLLEEVITPRKDLPPLLLKLNERPAERLDYLGVSYGLTPRLLKFWKRAGFVPVYLRQTPNDLTGEHSCIMLKTLTDEDEADQGGWLAAFWKDFRRRFLALLSYQFSTFSPSLALNIIQNRNMGKPAQPALSREELEALFLPYDLKRLEMYSRNMVDYHLIMDMIPAISRIYFLNQLGDLALSAAQSALLLGIGLQHKSVDQLEKEIELPSGQLMGLFNRIIRKVVKLFNEVQEKAIEEQMVAAKDVVMEPTMKTLSDDLDEAAKEFQEKHKKEVGKLKSMDLSEYIIRGDDEEWNEVLNKAGPNASIISLKSDKKRKLEAKQEPKQSKKLKNRETKNKKDMKLKRKK
In the case of B4, under setting [1], the “Fold Change” value is recorded as 0.7033 and the “Log (Fold Change)” value is on record as -0.1528.

B5: sp¦P42167¦LAP2B_HUMAN (protein, UniProt P42167 1-454, looked up)
Lamina-associated polypeptide …: MPEFLEDPSVLTKDKLKSELVANNVTLPAGEQRKDVYVQLYLQHLTARNRPPLPAGTNSKGPPDFSSDEEREPTPVLGSGAAAAGRSRAAVGRKATKKTDKPRQEDKDDLDVTELTNEDLLDQLVKYGVNPGPIVGTTRKLYEKKLLKLREQGTESRSSTPLPTISSSAENTRQNGSNDSDRYSDNEEDSKIELKLEKREPLKGRAKTPVTLKQRRVEHNQSYSQAGITETEWTSGSSKGGPLQALTRESTRGSRRTPRKRVETSEHFRIDGPVISESTPIAETIMASSNESLVVNRVTGNFKHASPILPITEFSDIPRRAPKKPLTRAEVGEKTEERRVERDILKEMFPYEASTPTGISASCRRPIKGAAGRPLELSDFRMEESFSSKYVPKYVPLADVKSEKTKKGRSIPVWIKILLFVVVAVFLFLVYQAMETNQVNPFSNFLHVDPRKSN
For the molecule B5, under setting [1], the “Fold Change” value amounted to 0.7013 and the “Log (Fold Change)” value is -0.1541.

B6: sp¦Q99496¦RING2_HUMAN (protein, UniProt Q99496 2-336, looked up)
E3 ubiquitin-protein ligase …: SQAVQTNGTQPLSKTWELSLYELQRTPQEAITDGLEIVVSPRSLHSELMCPICLDMLKNTMTTKECLHRFCADCIITALRSGNKECPTCRKKLVSKRSLRPDPNFDALISKIYPSRDEYEAHQERVLARINKHNNQQALSHSIEEGLKIQAMNRLQRGKKQQIENGSGAEDNGDSSHCSNASTHSNQEAGPSNKRTKTSDDSGLELDNNNAAMAIDPVMDGASEIELVFRPHPTLMEKDDSAQTRYIKTSGNATVDHLSKYLAVRLALEELRSKGESNQMNLDTASEKQYTIYIATASGQFTVLNGSFSLELVSEKYWKVNKPMELYYAPTKEHK
On to B6, for which, under setting [1], the “Fold Change” value stood at 0.6992 and the “Log (Fold Change)” value is reported as -0.1554.

B7: sp¦Q9HDC9¦APMAP_HUMAN (protein, UniProt Q9HDC9 2-416, looked up)
Adipocyte plasma …: SEADGLRQRRPLRPQVVTDDDGQAPEAKDGSSFSGRVFRVTFLMLAVSLTVPLLGAMMLLESPIDPQPLSFKEPPLLLGVLHPNTKLRQAERLFENQLVGPESIAHIGDVMFTGTADGRVVKLENGEIETIARFGSGPCKTRDDEPVCGRPLGIRAGPNGTLFVADAYKGLFEVNPWKREVKLLLSSETPIEGKNMSFVNDLTVTQDGRKIYFTDSSSKWQRRDYLLLVMEGTDDGRLLEYDTVTREVKVLLDQLRFPNGVQLSPAEDFVLVAETTMARIRRVYVSGLMKGGADLFVENMPGFPDNIRPSSSGGYWVGMSTIRPNPGFSMLDFLSERPWIKRMIFKLFSQETVMKFVPRYSLVLELSDSGAFRRSLHDPDGLVATYISEVHEHDGHLYLGSFRSPFLCRLSLQAV
For the molecule B7, under setting [1], the “Fold Change” value is 0.6899 and the “Log (Fold Change)” value is listed as -0.1612.

B8: sp¦O96008¦TOM40_HUMAN (protein, UniProt O96008 1-361, looked up)
Mitochondrial import receptor …: MGNVLAASSPPAGPPPPPAPALVGLPPPPPSPPGFTLPPLGGSLGAGTSTSRSSERTPGAATASASGAAEDGACGCLPNPGTFEECHRKCKELFPIQMEGVKLTVNKGLSNHFQVNHTVALSTIGESNYHFGVTYVGTKQLSPTEAFPVLVGDMDNSGSLNAQVIHQLGPGLRSKMAIQTQQSKFVNWQVDGEYRGSDFTAAVTLGNPDVLVGSGILVAHYLQSITPCLALGGELVYHRRPGEEGTVMSLAGKYTLNNWLATVTLGQAGMHATYYHKASDQLQVGVEFEASTRMQDTSVSFGYQLDLPKANLLFKGSVDSNWIVGATLEKKLPPLPLTLALGAFLNHRKNKFQCGFGLTIG
Consider B8, for which, under setting [1], the “Fold Change” value turned out to be 0.6912 and the “Log (Fold Change)” value is -0.1604.

B9: sp¦P54577¦SYYC_HUMAN (protein, UniProt P54577 1-528, looked up)
Tyrosine--tRNA ligase, …: MGDAPSPEEKLHLITRNLQEVLGEEKLKEILKERELKIYWGTATTGKPHVAYFVPMSKIADFLKAGCEVTILFADLHAYLDNMKAPWELLELRVSYYENVIKAMLESIGVPLEKLKFIKGTDYQLSKEYTLDVYRLSSVVTQHDSKKAGAEVVKQVEHPLLSGLLYPGLQALDEEYLKVDAQFGGIDQRKIFTFAEKYLPALGYSKRVHLMNPMVPGLTGSKMSSSEEESKIDLLDRKEDVKKKLKKAFCEPGNVENNGVLSFIKHVLFPLKSEFVILRDEKWGGNKTYTAYVDLEKDFAAEVVHPGDLKNSVEVALNKLLDPIREKFNTPALKKLASAAYPDPSKQKPMAKGPAKNSEPEEVIPSRLDIRVGKIITVEKHPDADSLYVEKIDVGEAEPRTVVSGLVQFVPKEELQDRLVVVLCNLKPQKMRGVESQGMLLCASIEGINRQVEPLDPPAGSAPGEHVFVKGYEKGQPDEELKPKKKVFEKLQADFKISEECIAQWKQTNFMTKLGSISCKSLKGGNIS
For B9, under setting [1], the “Fold Change” value is listed as 0.6907 and the “Log (Fold Change)” value is reported as -0.1607.

B10: sp¦Q8TCS8¦PNPT1_HUMAN (protein, UniProt Q8TCS8 46-783, looked up)
Polyribonucleotide …: AVAVDLGNRKLEISSGKLARFADGSAVVQSGDTAVMVTAVSKTKPSPSQFMPLVVDYRQKAAAAGRIPTNYLRREIGTSDKEILTSRIIDRSIRPLFPAGYFYDTQVLCNLLAVDGVNEPDVLAINGASVALSLSDIPWNGPVGAVRIGIIDGEYVVNPTRKEMSSSTLNLVVAGAPKSQIVMLEASAENILQQDFCHAIKVGVKYTQQIIQGIQQLVKETGVTKRTPQKLFTPSPEIVKYTHKLAMERLYAVFTDYEHDKVSRDEAVNKIRLDTEEQLKEKFPEADPYEIIESFNVVAKEVFRSIVLNEYKRCDGRDLTSLRNVSCEVDMFKTLHGSALFQRGQTQVLCTVTFDSLESGIKSDQVITAINGIKDKNFMLHYEFPPYATNEIGKVTGLNRRELGHGALAEKALYPVIPRDFPFTIRVTSEVLESNGSSSMASACGGSLALMDSGVPISSAVAGVAIGLVTKTDPEKGEIEDYRLLTDILGIEDYNGDMDFKIAGTNKGITALQADIKLPGIPIKIVMEAIQQASVAKKEILQIMNKTISKPRASRKENGPVVETVQVPLSKRAKFVGPGGYNLKKLQAETGVTISQVDEETFSVFAPTPSAMHEARDFITEICKDDQEQQLEFGAVYTATITEIRDTGVMVKLYPNMTAVLLHNTQLDQRKIKHPTALGLEVGQEIQVKYFGRDPADGRMRLSRKVLQSPATTVVRTLNDRSSIVMGEPISQSSSNSQ
Take B10: under setting [1], the “Fold Change” value is 0.6886 and the “Log (Fold Change)” value was -0.162.

B11: sp¦Q15654¦TRIP6_HUMAN (protein, UniProt Q15654 1-476, looked up)
Thyroid receptor-interacting …: MSGPTWLPPKQPEPARAPQGRAIPRGTPGPPPAHGAALQPHPRVNFCPLPSEQCYQAPGGPEDRGPAWVGSHGVLQHTQGLPADRGGLRPGSLDAEIDLLSSTLAELNGGRGHASRRPDRQAYEPPPPPAYRTGSLKPNPASPLPASPYGGPTPASYTTASTPAGPAFPVQVKVAQPVRGCGPPRRGASQASGPLPGPHFPLPGRGEVWGPGYRSQREPGPGAKEEAAGVSGPAGRGRGGEHGPQVPLSQPPEDELDRLTKKLVHDMNHPPSGEYFGQCGGCGEDVVGDGAGVVALDRVFHVGCFVCSTCRAQLRGQHFYAVERRAYCEGCYVATLEKCATCSQPILDRILRAMGKAYHPGCFTCVVCHRGLDGIPFTVDATSQIHCIEDFHRKFAPRCSVCGGAIMPEPGQEETVRIVALDRSFHIGCYKCEECGLLLSSEGECQGCYPLDGHILCKACSAWRIQELSATVTTDC
B11: under setting [2], the “Fold Change” value is reported as 0.6873 and the “Log (Fold Change)” value was -0.1629.

The values above are taken from article PMC8298264, “Function of cofactor Akirin2 in the regulation of gene expression in model human neutrophil-like HL60 cells” (Bioscience Reports, 2021).
